In IntAct's records for PubMed 17891150:

B1: Trinucleotide repeat-containing gene 6B protein (Homo sapiens), Q9UPQ9-2 (parent)
chain: MQTNEGEVSEESSSKVEQEDFVMEGHGKTPPPGEESKQEKEQEREEQLMEDKKRKKEDKKKKEATQKVTEQKTKVPEVTKPSLSQPTAASPIGSSPSPPVNGGNNAKRVAVPNGQPPSAARYMPREVPPRFRCQQDHKVLLKRGQPPPPSCMLLGGGAGPPPCTAPGANPNNAQVTGALLQSESGTAPVWSKSTPPAPDNGTSAWGEPNESSPGWGEMDDTGASTTGWGNTPANAPNAMKPNSKSMQDGWGESDGPVTGARHPSWEEEEDGGVWNTTGSQGSASSHNSASWGQGGKKQMKCSLKGGNNDSWMNPLAKQFSNMGLLSQTEDNPSSKMDLSVGSLSDKKFDVDKRAMNLGDFNDIMRKDRSGFRPPNSKDMGTTDSGPYFEKGGSHGLFGNSTAQSRGLHTPVQPLNSSPSLRAQVPPQFISPQVSASMLKQFPNSGLSPGLFNVGPQLSPQQIAMLSQLPQIPQFQLACQLLLQQQQQQQLLQNQRKISQAVRQQQEQQLARMVSALQQQQQQQQRQPGMKHSPSHPVGPKPHLDNMVPNALNVGLPDLQTKGPIPGYGSGFSSGGMDYGMVGGKEAGTESRFKQWTSMMEGLPSVATQEANMHKNGAIVAPGKTRGGSPYNQFDIIPGDTLGGHTGPAGDSWLPAKSPPTNKIGSKSSNASWPPEFQPGVPWKGIQNIDPESDPYVTPGSVLGGTATSPIVDTDHQLLRDNTTGSNSSLNTSLPSPGAWPYSASDNSFTNVHSTSAKFPDYKSTWSPDPIGHNPTHLSNKMWKNHISSRNTTPLPRPPPGLTNPKPSSPWSSTAPRSVRGWGTQDSRLASASTWSDGGSVRPSYWLVLHNLTPQIDGSTLRTICMQHGPLLTFHLNLTQGTALIRYSTKQEAAKAQTALHMCVLGNTTILAEFATDDEVSRFLAQAQPPTPAATPSAPAAGWQSLETGQNQSDPVGPALNLFGGSTGLGQWSSSAGGSSGADLAGASLWGPPNYSSSLWGVPTVEDPHRMGSPAPLLPGDLLGGGSDSI

Variants of: B1
Details: with ago2_human AGO2, Q9UKV8
Sequence of ago2_human AGO2, Q9UKV8 (Q9UKV8 whole entry): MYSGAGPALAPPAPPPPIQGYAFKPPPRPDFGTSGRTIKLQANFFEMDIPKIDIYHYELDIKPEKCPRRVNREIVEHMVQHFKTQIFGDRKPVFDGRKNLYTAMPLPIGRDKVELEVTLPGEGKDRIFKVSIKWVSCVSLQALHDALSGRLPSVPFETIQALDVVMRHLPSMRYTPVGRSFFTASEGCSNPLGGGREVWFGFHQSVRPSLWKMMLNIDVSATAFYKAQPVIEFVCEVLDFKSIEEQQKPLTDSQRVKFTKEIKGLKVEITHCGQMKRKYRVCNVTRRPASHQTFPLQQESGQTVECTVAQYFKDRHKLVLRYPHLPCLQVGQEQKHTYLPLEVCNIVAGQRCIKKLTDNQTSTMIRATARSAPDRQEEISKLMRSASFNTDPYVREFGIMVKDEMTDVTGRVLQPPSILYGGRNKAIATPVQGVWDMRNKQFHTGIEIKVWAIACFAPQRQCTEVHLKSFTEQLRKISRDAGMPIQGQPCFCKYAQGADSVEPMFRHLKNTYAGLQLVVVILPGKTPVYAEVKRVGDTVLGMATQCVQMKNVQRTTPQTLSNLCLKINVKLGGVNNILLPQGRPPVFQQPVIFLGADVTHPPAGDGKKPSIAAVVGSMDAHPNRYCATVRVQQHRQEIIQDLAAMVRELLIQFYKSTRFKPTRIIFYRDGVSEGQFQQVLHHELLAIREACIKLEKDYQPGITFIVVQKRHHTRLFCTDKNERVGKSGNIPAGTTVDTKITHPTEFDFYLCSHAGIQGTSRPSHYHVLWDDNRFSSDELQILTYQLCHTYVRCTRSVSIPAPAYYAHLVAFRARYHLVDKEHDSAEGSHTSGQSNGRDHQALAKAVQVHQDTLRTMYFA

effect of a mutation on the interaction	Variant
disrupting interaction	W215F
disrupting interaction	W205F
disrupting interaction	W205A;W215A
